For 167 variants, self-cleavage results are on record in the RNAGym collection of RNA variant scans (doi:10.7554/elife.90254).

The chains are these.
B1: OR4K15 (parent)
chain: GUUAACGGUCAUAGGCCAUGGAAACUAGGAGCACCAUUUCGCUGCCAGUGAAGAAAUGAACAAAGAAAAUCUGGGCCAGGCAGGCAUCAAAAGAAAUAGUCUUGCGCUCAACCAGAAAGUCUGUAAUCAUUUUAAGGGUA

Variants of B1 are the subject of this data set. Briefly: self-cleavage, relative activity (ratio to wild type); higher = more cleavage; in vitro, sequencing; the parent is a self-cleaving ribozyme.
Regarding A55G A86C, the self-cleavage came to 1.66.

For the variant G53U U70C, the self-cleavage was determined as 1.29.

Regarding A51U A111G, the self-cleavage is 0.04.

Take A51U A111U: the self-cleavage worked out at 0.06.

On to A52C A89G, for which the self-cleavage is 1.02.

Turning to A54U A117G, the self-cleavage stood at 1.63.

For A51G U139C, the self-cleavage came out at 1.69.

In the case of A52U A90U, the self-cleavage is 2.35.

Take A52U A90G: the self-cleavage was 0.38.

On to A54C U87C, for which the self-cleavage was 1.45.

In the case of A55G A126C, the self-cleavage turned out to be 0.18.

Turning to A54C A116G, the self-cleavage worked out at 0.17.

Consider A52C, for which the self-cleavage is 0.57.

A52G: the self-cleavage worked out at 1.11.

Take A52U: the self-cleavage was determined as 0.8.

Turning to A54U A89C, the self-cleavage came to 1.5.

Consider A54U A89G, for which the self-cleavage amounted to 1.42.

As for A54G A90U, the self-cleavage came to 1.57.

For the variant A54U U72C, the self-cleavage turned out to be 0.09.

A52G U120C: the self-cleavage came to 1.16.

With A55G G65A, the self-cleavage came to 1.07.

As for A52G U124C, the self-cleavage worked out at 1.18.

Take A52G U124A: the self-cleavage is 1.03.

On to A52G A82U, for which the self-cleavage stood at 0.2.

Regarding A52G A82G, the self-cleavage is 0.19.

Take A51U A116G: the self-cleavage was 0.37.

Turning to A54G A96G, the self-cleavage came to 1.5.

Regarding A54G U122G, the self-cleavage came out at 2.7.

Turning to G53U C112U, the self-cleavage was 0.01.

In the case of G53A U102A, the self-cleavage worked out at 0.68.

On to A52U U124G, for which the self-cleavage turned out to be 0.84.

In the case of A54G G106A, the self-cleavage was 0.02.

Consider A55C U87C, for which the self-cleavage was found to be 0.47.

A54G G75A: the self-cleavage amounted to 0.14.

In the case of A52U A66U, the self-cleavage was determined as 1.48.

A52U A66G: the self-cleavage worked out at 1.8.

With A55G A110G, the self-cleavage came out at 0.12.

Consider G53U U72A, for which the self-cleavage came to 0.19.

As to A52C U87C, the self-cleavage came to 1.09.

On to A55C U102C, for which the self-cleavage was 1.41.

Regarding A54G U103C, the self-cleavage was 0.91.

Regarding A54G U103A, the self-cleavage was 0.48.

A55G A116G: the self-cleavage was 0.63.

Regarding A54G U108A, the self-cleavage amounted to 0.02.

For A54G A140U, the self-cleavage stood at 1.25.

For the variant A52G A56C, the self-cleavage was determined as 0.99.

As to A54G A55U, the self-cleavage was found to be 1.55.

Take A51U A68C: the self-cleavage came to 1.91.

Regarding A51U A68G, the self-cleavage amounted to 1.24.

Take A52G U122A: the self-cleavage turned out to be 0.76.

As for A52G U122G, the self-cleavage came out at 1.94.

As to A55G A114U, the self-cleavage turned out to be 0.02.

Turning to A55G A114C, the self-cleavage worked out at 0.05.

Regarding A52G A67G, the self-cleavage is 1.13.

Take A55G G84A: the self-cleavage is 2.46.

With A52G A114G, the self-cleavage was determined as 0.28.

Take A52G A114U: the self-cleavage came to 0.14.

Take A52C A114G: the self-cleavage was determined as 0.25.

As for A52G C128U, the self-cleavage was 1.26.

For the variant A54G U57G, the self-cleavage is 0.2.

A54G U57C: the self-cleavage was determined as 0.65.

As to A52C A55U, the self-cleavage amounted to 1.72.

On to A52G A98U, for which the self-cleavage is 2.16.

For the variant A52C A116G, the self-cleavage came out at 0.64.

Turning to G53U A59G, the self-cleavage stood at 1.26.

With A54U A116U, the self-cleavage stood at 0.42.

A51U A78G: the self-cleavage amounted to 0.26.

As to A51U A78C, the self-cleavage amounted to 0.2.

On to A52C A95G, for which the self-cleavage was 1.94.

As for A54U U130C, the self-cleavage came out at 1.62.

Turning to A54U A129G, the self-cleavage is 0.88.

For A51U G84A, the self-cleavage amounted to 0.65.

Regarding A54G G123U, the self-cleavage was determined as 1.75.

Take A51U A114G: the self-cleavage came to 0.19.

As for A52G A63G, the self-cleavage is 1.33.

For the variant A55G A111U, the self-cleavage amounted to 0.21.

Take A52G C85U: the self-cleavage is 0.87.

Turning to A52G C77A, the self-cleavage is 1.2.

As to A51U G74A, the self-cleavage was 0.22.

For A52G A96U, the self-cleavage was determined as 1.86.

For A54U A67G, the self-cleavage amounted to 0.82.

Regarding A54U U124A, the self-cleavage is 0.86.

For the variant A54C U57C, the self-cleavage amounted to 1.29.

For the variant A55G A82C, the self-cleavage was determined as 0.16.

For A54G A78G, the self-cleavage worked out at 0.3.

As for A55G A94G, the self-cleavage stood at 1.39.

In the case of A51U A55G, the self-cleavage was 0.55.

With A54U A64U, the self-cleavage amounted to 1.98.

Consider A54G U102A, for which the self-cleavage is 0.17.

As to A54G U102C, the self-cleavage is 1.41.

For the variant A54G U131C, the self-cleavage is 1.3.

Turning to A52U A55U, the self-cleavage turned out to be 1.62.

As to A52U A55G, the self-cleavage was 1.07.

With A52G U131C, the self-cleavage stood at 1.51.

Turning to A52G U133C, the self-cleavage is 1.33.

Consider A54G A66U, for which the self-cleavage turned out to be 1.14.

With A51U A98U, the self-cleavage was found to be 2.9.

As for A52U A89G, the self-cleavage is 1.56.

In the case of A55C A82G, the self-cleavage came out at 0.53.

For A51G U132C, the self-cleavage worked out at 0.81.

For A52G A90G, the self-cleavage was 0.99.

With A52G A90U, the self-cleavage stood at 1.81.

For G53A A89U, the self-cleavage stood at 2.31.

Regarding A54U A126G, the self-cleavage was found to be 1.6.

With A51U G104A, the self-cleavage came to 0.01.

For the variant A51U A126G, the self-cleavage came to 1.46.

Consider A54G A110U, for which the self-cleavage is 1.71.

On to A52C A66G, for which the self-cleavage is 1.59.

Consider A52G A62U, for which the self-cleavage worked out at 1.2.

With A52G A62G, the self-cleavage came out at 1.19.

Take A52G A55G: the self-cleavage is 0.97.

As for A54U A86G, the self-cleavage came to 0.36.

As for A52G A134G, the self-cleavage worked out at 1.25.

For the variant A54G U133C, the self-cleavage came out at 1.88.

With A55G A95G, the self-cleavage was 1.92.

On to A52G C121U, for which the self-cleavage was found to be 1.18.

In the case of A52G C121G, the self-cleavage amounted to 2.33.

For the variant A52G A89C, the self-cleavage came to 2.11.

As to A54U A96G, the self-cleavage worked out at 1.68.

Take A52C A63G: the self-cleavage amounted to 2.56.

As to A51U U70C, the self-cleavage worked out at 0.46.

For A55G A140U, the self-cleavage was 0.81.

With A54U A114G, the self-cleavage amounted to 0.14.

In the case of A51U G106A, the self-cleavage is 0.03.

Turning to G53A G119U, the self-cleavage is 2.11.

A55C U72C: the self-cleavage was found to be 0.24.

As for A52U U127C, the self-cleavage is 0.98.

Turning to A52C U127A, the self-cleavage was 1.62.

Take A54G U87A: the self-cleavage was found to be 1.79.

Regarding A54G U87C, the self-cleavage was 0.9.

Take A52U A94U: the self-cleavage came to 1.94.

For the variant A52U U100C, the self-cleavage was 2.57.

On to A55G G74A, for which the self-cleavage was found to be 0.31.

Regarding A54G A82C, the self-cleavage was 0.13.

With A52U U130C, the self-cleavage stood at 1.8.

For the variant A52G A78U, the self-cleavage was found to be 0.47.

Consider A52G A129U, for which the self-cleavage was determined as 0.71.

Turning to A52G A129G, the self-cleavage stood at 1.3.

As to A52G A94U, the self-cleavage was determined as 2.01.

On to A52G A94G, for which the self-cleavage amounted to 1.99.

As to G53A A54U, the self-cleavage stood at 1.67.

For A52U U70C, the self-cleavage turned out to be 1.72.

On to A54U A60G, for which the self-cleavage was found to be 0.97.

In the case of G53A A78G, the self-cleavage turned out to be 0.22.

In the case of G53A A78U, the self-cleavage turned out to be 0.52.

For the variant A54G C76G, the self-cleavage stood at 0.22.

A54U A82C: the self-cleavage stood at 0.13.

On to A54U A82G, for which the self-cleavage turned out to be 0.64.

As for A52G C76G, the self-cleavage came to 0.03.

Take A52G C76U: the self-cleavage was determined as 0.13.

Consider A55G A56G, for which the self-cleavage came to 1.31.

For the variant A52U U120C, the self-cleavage turned out to be 1.21.

Regarding A55G A66U, the self-cleavage was 0.64.

As to A54G C112U, the self-cleavage was 0.03.

As to A52U G137A, the self-cleavage is 1.58.

With A52C A126G, the self-cleavage came to 0.42.

With A54G U120G, the self-cleavage was found to be 2.09.

For A51U A59U, the self-cleavage came to 0.5.

Regarding A52U A96G, the self-cleavage was determined as 1.91.

As to G53U A82U, the self-cleavage was 0.27.

In the case of A55G A98U, the self-cleavage was 1.21.

Regarding A54U A91G, the self-cleavage is 0.86.

Turning to A54U A59G, the self-cleavage worked out at 1.75.

A54G U100C: the self-cleavage is 2.16.

Take A54G A118G: the self-cleavage is 1.08.

With A54G A118U, the self-cleavage was found to be 0.84.

As to A54U A92G, the self-cleavage is 1.54.
